# Source: the supplement of paper PMC7877785
# ± gives the uncertainty stated by the source.
# Assay: self-splicing fitness, log relative to wild type (ln ratio); higher = more splicing; Tetrahymena group I intron in knt gene, E. coli kanamycin selection, DiMSum; sequences stand for … in CUCUCU…GGAGGGAAAAGUUAUCAGGCAUGCACCUGGUAGCUAGUCUUUAAACCAAUAGAUUGCAUCGGUUUAAAAGGCAAGACCGUCAAAUUGCGGGAAAGGGGUCAACAGCCGUUCAGUACCAAGUCUCAGGGGAAACUUUGAGAUGGCCUUGCAAAGGGUAUGGUAAUAAGCUGACGGACAUGGUCCUAACCACGCAGCCAAGUCCUAAGUCAACAGAUCUUCUGUUGAUAUGGAUGCAGUUCACAGACUAAAUGUCGGUCGGGGAAGAUGUAUUCUUCUCAUAAGAUAUAGUCGGACCUCUCCUUAAUGGGAGCUAGCGGAUGAAGUGAUGCAACACUGGAGCCGCUGGGAACUAAUUUGUAUGCGAAAGUAUAUUGAUUAGUUUUGGAGUACUCGUGGUCG
# Method in brief: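 Fitness was computed with DiMSum as the error-weighted combination of replicate fold changes, kanamycin versus none, each normalised to wild type. The library randomised all eight intron nucleotides of the P1ex region, with the intron placed in the knt kanamycin-resistance gene on pET-22b(+) in E. coli BL21(DE3). Six replicate transformations were grown overnight at 37°C or 30°C on LB agar with or without 25 μg/mL kanamycin, plus 100 μg/mL carbenicillin, 50 μM IPTG and 0.2% rhamnose. Pooled colonies were amplicon-sequenced on an Illumina HiSeq 2500.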
Sequence,self-splicing fitness (ln) (30 °C),self-splicing fitness (ln) (37 °C)
UAAAAGCAAUAUUACGUGAG,-0.888 ± 0.044,-0.622 ± 0.078
UAAAAGCAAUAUUACGUGGU,-3.53 ± 0.13,-2.28 ± 0.14
UAAAAGCAAUAUUACGUUAG,-1.37 ± 0.069,-1.33 ± 0.088
UAAAAGCAAUAUUACGUUCU,-1.87 ± 0.14,-1.13 ± 0.14
UAACAGCAAUAUUACGAAUA,-0.62 ± 0.1,-0.528 ± 0.1
UAACAGCAAUAUUACGAUUG,-1.57 ± 0.056,-0.741 ± 0.082
UAACAGCAAUAUUACGCAAU,-2.89 ± 0.15,-0.816 ± 0.15
UAACAGCAAUAUUACGCCAG,-2.03 ± 0.12,-1.42 ± 0.18
UAACAGCAAUAUUACGCGGC,-3.99 ± 0.28,-2.65 ± 0.35
UAACAGCAAUAUUACGGAGC,,-2.58 ± 0.29
UAACAGCAAUAUUACGGCAU,-1.85 ± 0.093,0.0326 ± 0.093
UAACAGCAAUAUUACGGCGC,-2.5 ± 0.13,-1.44 ± 0.13
UAACAGCAAUAUUACGGGAC,-4.36 ± 0.17,-1.89 ± 0.13
UAACAGCAAUAUUACGGGAU,-3.08 ± 0.15,-2.43 ± 0.16
UAACAGCAAUAUUACGGGCG,-0.476 ± 0.064,0.217 ± 0.087
UAACAGCAAUAUUACGGGGC,-3.63 ± 0.19,-2.86 ± 0.24
UAACAGCAAUAUUACGGUGG,-1.67 ± 0.067,-1.06 ± 0.084
UAACAGCAAUAUUACGUACG,-0.675 ± 0.047,-0.193 ± 0.069
UAACAGCAAUAUUACGUAGA,-2.81 ± 0.071,-1.37 ± 0.086
UAACAGCAAUAUUACGUCAG,-1.53 ± 0.073,-0.0779 ± 0.085
UAACAGCAAUAUUACGUCCC,-2.98 ± 0.34,-1.38 ± 0.27
UAACAGCAAUAUUACGUGUC,-4.05 ± 0.14,-2.35 ± 0.13
UAACAGCAAUAUUACGUGUG,-1.23 ± 0.042,-0.692 ± 0.055
UAACAGCAAUAUUACGUGUU,-3.78 ± 0.14,-2.34 ± 0.12
UAACAGCAAUAUUACGUUAU,-3.22 ± 0.16,-2.96 ± 0.23

Sequence,self-splicing fitness (ln) (30 °C),self-splicing fitness (ln) (37 °C)
UAAGAGCAAUAUUACGAAAG,-3.88 ± 0.31,-1.92 ± 0.23
UAAGAGCAAUAUUACGACCC,-2.18 ± 0.37,
UAAGAGCAAUAUUACGACCG,-2.9 ± 0.35,-2.21 ± 0.25
UAAGAGCAAUAUUACGACCU,-1.34 ± 0.23,
UAAGAGCAAUAUUACGACGC,-2.96 ± 0.32,-2.07 ± 0.43
UAAGAGCAAUAUUACGACUA,-0.436 ± 0.11,0.314 ± 0.11
UAAGAGCAAUAUUACGAUGC,-3.73 ± 0.42,-2.34 ± 0.33
UAAGAGCAAUAUUACGCAAA,-2.38 ± 0.21,-2.44 ± 0.21
UAAGAGCAAUAUUACGCACG,-2.42 ± 0.15,-1.84 ± 0.15
UAAGAGCAAUAUUACGCAGU,,-2.38 ± 0.28
UAAGAGCAAUAUUACGCCUA,-2.03 ± 0.15,-1.41 ± 0.12
UAAGAGCAAUAUUACGCGUG,-2.33 ± 0.13,-1.88 ± 0.13
UAAGAGCAAUAUUACGCUAA,,-1.77 ± 0.27
UAAGAGCAAUAUUACGCUUC,-3.71 ± 0.25,-2.46 ± 0.25
UAAGAGCAAUAUUACGGAAG,-2.8 ± 0.41,
UAAGAGCAAUAUUACGGCCA,-1.81 ± 0.3,-1.48 ± 0.37
UAAGAGCAAUAUUACGGCGC,-2.68 ± 0.32,-2.01 ± 0.41
UAAGAGCAAUAUUACGGCUG,-1.55 ± 0.12,-0.424 ± 0.18
UAAGAGCAAUAUUACGGUGG,-4.17 ± 0.33,-2.36 ± 0.26
UAAGAGCAAUAUUACGGUGU,-2.19 ± 0.14,-3.27 ± 0.47
UAAGAGCAAUAUUACGGUUC,-2.19 ± 0.21,-2.14 ± 0.46
UAAGAGCAAUAUUACGUAUG,-5.26 ± 0.45,-2.47 ± 0.34
UAAGAGCAAUAUUACGUCAU,-2.21 ± 0.14,-2.22 ± 0.24
UAAGAGCAAUAUUACGUCUA,-0.273 ± 0.093,-0.548 ± 0.1
UAAGAGCAAUAUUACGUUAU,-3.21 ± 0.44,

Sequence,self-splicing fitness (ln) (30 °C),self-splicing fitness (ln) (37 °C)
UAAUAGCAAUAUUACGAACC,-3.22 ± 0.49,-2.27 ± 0.39
UAAUAGCAAUAUUACGAAUU,,-2.58 ± 0.24
UAAUAGCAAUAUUACGACGC,-2.84 ± 0.34,
UAAUAGCAAUAUUACGAUUU,-2 ± 0.11,-1.13 ± 0.11
UAAUAGCAAUAUUACGCCAU,-2.36 ± 0.22,-1.55 ± 0.23
UAAUAGCAAUAUUACGCCUG,-0.203 ± 0.13,-0.254 ± 0.16
UAAUAGCAAUAUUACGCCUU,-3.48 ± 0.21,-1 ± 0.14
UAAUAGCAAUAUUACGCGAC,-3.42 ± 0.35,-1.61 ± 0.34
UAAUAGCAAUAUUACGCUCG,0.447 ± 0.16,0.265 ± 0.18
UAAUAGCAAUAUUACGGCAU,-3.26 ± 0.18,-2.28 ± 0.23
UAAUAGCAAUAUUACGGGCG,-1.45 ± 0.1,-0.567 ± 0.13
UAAUAGCAAUAUUACGUAGC,-2.63 ± 0.35,-2.19 ± 0.26
UAAUAGCAAUAUUACGUCGC,-3.86 ± 0.43,-1.71 ± 0.35
UAAUAGCAAUAUUACGUGAC,-3.71 ± 0.22,-2.78 ± 0.22
UAAUAGCAAUAUUACGUGAG,-1.76 ± 0.088,-1.47 ± 0.12
UAAUAGCAAUAUUACGUGUC,-3.02 ± 0.23,-2.44 ± 0.3
UAAUAGCAAUAUUACGUUGG,-3.11 ± 0.13,-0.991 ± 0.11
UACAAGCAAUAUUACGAAAG,-2.61 ± 0.11,-2.37 ± 0.16
UACAAGCAAUAUUACGAAGU,-4.09 ± 0.42,-1.97 ± 0.24
UACAAGCAAUAUUACGACCC,-2.31 ± 0.46,
UACAAGCAAUAUUACGACGA,-0.323 ± 0.065,0.0319 ± 0.075
UACAAGCAAUAUUACGACUA,-0.188 ± 0.062,0.316 ± 0.083
UACAAGCAAUAUUACGAGAU,-3.65 ± 0.28,-3.07 ± 0.28
UACAAGCAAUAUUACGCACG,-1.29 ± 0.094,0.0257 ± 0.1
UACAAGCAAUAUUACGCCCA,0.292 ± 0.11,0.261 ± 0.13

Sequence,self-splicing fitness (ln) (30 °C),self-splicing fitness (ln) (37 °C)
UACAAGCAAUAUUACGCGGU,-3.61 ± 0.16,-2.61 ± 0.18
UACAAGCAAUAUUACGCUGC,-2.03 ± 0.19,-0.919 ± 0.32
UACAAGCAAUAUUACGCUGU,,-1.65 ± 0.28
UACAAGCAAUAUUACGCUUA,-2.33 ± 0.11,-1.18 ± 0.08
UACAAGCAAUAUUACGCUUC,-4.25 ± 0.42,-3.02 ± 0.25
UACAAGCAAUAUUACGGAUA,-1.38 ± 0.086,-0.839 ± 0.092
UACAAGCAAUAUUACGGCUA,-0.336 ± 0.06,0.201 ± 0.088
UACAAGCAAUAUUACGGCUG,-0.22 ± 0.1,0.307 ± 0.16
UACAAGCAAUAUUACGGUGG,-1.65 ± 0.051,-1.25 ± 0.064
UACAAGCAAUAUUACGUACA,-1.56 ± 0.084,-0.15 ± 0.086
UACAAGCAAUAUUACGUACG,-3.9 ± 0.22,-1.3 ± 0.13
UACAAGCAAUAUUACGUGCA,-0.352 ± 0.083,-0.366 ± 0.1
UACAAGCAAUAUUACGUGCG,-1.05 ± 0.054,-0.158 ± 0.075
UACAAGCAAUAUUACGUGCU,-3.34 ± 0.16,-2.22 ± 0.13
UACAAGCAAUAUUACGUGGG,-3.82 ± 0.21,-3.3 ± 0.24
UACAAGCAAUAUUACGUGGU,-3.29 ± 0.14,-3.27 ± 0.17
UACCAGCAAUAUUACGAAUU,-2.55 ± 0.17,-1.96 ± 0.2
UACCAGCAAUAUUACGACUA,-0.413 ± 0.078,0.638 ± 0.098
UACCAGCAAUAUUACGCCUG,-1.3 ± 0.14,-1.21 ± 0.19
UACCAGCAAUAUUACGCGAA,-0.474 ± 0.063,-0.386 ± 0.086
UACCAGCAAUAUUACGCGUG,0.016 ± 0.081,0.0464 ± 0.099
UACCAGCAAUAUUACGCUGA,-2.43 ± 0.15,-1.21 ± 0.11
UACCAGCAAUAUUACGGAAG,-3.5 ± 0.24,-1.57 ± 0.16
